# Measured values taken from the DeepSol protein solubility set.
# Test: soluble on expression in E. coli; label from the status in PepcDB or PDB records
row,Sequence,soluble on expression in E. coli
1,MSNPEQHIQDLALEEVMGDRFGRYSKYIIQERALPDVRDGLKPVQRRILFAMNVEGNTAEKGFRKSAKTVGNVIGNYHPHGDSSVYEAMVRMSQDWKVRNMLIEMHGNNGSVDGDPPAAMRYTEARLSPISAELLRDIEKETVDFIPNFDDTSSEPTVLPARFPNLLVNGSTGISAGYATDIPPHNLTEIIEAVIKRLDNPLCTTDDIMKIVKGPDFPTGGIIQGIDGIRKAYQTGKGRVVVRSKTEIEDIRGGRKQITIHEIPYEVNKANLVKRMDELRIEKKIEGISEVRDETDRTGLRIAVELKKDANAEGVLNYLFKNTDLQVSYNFNMVAINKKRPELMGIIPMLDAYIEHQKEIITKRSEYDIRKARARQHILEGLIKALSILDEVIKLIRGSKDKRDAKLNLQTKYDFSEKQAEAIVSLQLYRLTNTDIHELQSEAKSLAEQISVLEKILGDEAELIAVLKEELAEIKKKYKTARRTEVQAEIAEIKIDTEVLVANEDVIVSVTKEGYVKRTSQRSYAASNGAELAMKEADHAIFIQKMNSLDSLLLFTSKGNFIYRPVHELPDIRWKNLGDHVSHLASDLSAGEEIRSAIAIQAFTEEKRFLFVTKNGMTKQSAITNYKPQRYSKSMMAIKLKGDDELLSVHLIDGTEDIFLATKNGYGLRYSITEIPESGARTAGVKAINLKQDDIVIGGIVLMPNEQKHILLATQRGSLKQMKASEFEPISRAKRGLLMLRELKSNPHRFIGITLADNNDHLFIETNTDQIVEIDVANLRITDRYSNGSFVLDETMEGEPTSIWLAIPEIKDTSDAKEE,not soluble
2,MSNRFAVILAAGKGTRMKSKLYKVLHPVCGKPMVQHVVDQVSQLGLQKLVTVVGHGAEMVQEQLGNVSEFALQAEQLGTAHAVDQAAGVLANEEGTTLVICGDTPLITAETMEALLQQHKEAGAMATVLTAYIEEPAGYGRIVRNENGHVEKIVEHKDANEKELAIKEINTGTYCFDNKALFASLSKVSNDNVQGEYYLPDVIEILKNEGHIVSAYQTEHFDETLGVNDRVALSQAEIIMKNRINRKNMVNGVTIIDPSNTYISADAIIGSDTVLHPGTIIEGNTVIGSDCEIGPHTVIRDSEIGDRTTIRQSTVHDSKLGTEVSVGPFAHIRPDSVIGDEVRVGNFVEIKKTVFGNRSKASHLSYIGDAQVGEDVNLGCGSITVNYDGKNKFKTVIGNGVFIGCNSNLVAPVTVEDGAYVAAGSTITENVPSKALSVARARQVNKEDYVDQLLNKKKS,not soluble
3,MSNSTMEATQMKVKLAVDEMIDDLDKTYLRDMQKSMFQCSARCCDNKKTTRDAVENCVESCNDGMKKAQGYLEKELGGLQDQLSRCAMTCYDKLVQQFGPDVNKYSESQKLSFNEKLDSCVSVCADDHIKLIPAIKKRFAKNT,not soluble
4,MSNVHPYTIFATMPHKSTAKDILIMSYDLSKRLVIGLASSALFDLSESDNIFRMEGAETYRQYQREKQNHPLKKALSFHLLKNFCQSMK,not soluble
5,MSPAQIIRTSHSFPPSFTGTSSSAENSHAQSPQQVLTRAFVASGELNAAFGRTSTASAQDFTSLLGTLQRELEKKTPAFPDLAELANQLADAAMGDQGGHWLGRDEQQTLKGMIDRCKSQLAHTPASDASYDLLAQVCENLKKARLHQSISQMTGEAHAKVRGVPDLLALIQLDPDILAEKPVGMPSYVKFSSFICMAKARTAELSENLRNASNEVALLLHPHADTILEQGSLRLQIVGF,not soluble
6,MSPKVTKEHKDKRQAEILEAAKTVFKRKGFELTTMKDVVEESGFSRGGVYLYFSSTEEMFRRIIETGLDEGLRKLDKSAEHQSVWASISSYLDELTEGLRDVADTLAPVQFEYLVTAWRNEERRQYLEKRYDLFVERFSRLLQKGIDQGEFQPVQPLATIAKFFLNMNDGIIQNALYFDEEKADVSGLAESAKLYLKTVLQADEK,soluble
7,MSPLSSGLLGDLDPTSDRAVFRQIADQLREAIDRGRFREGEKLPSEAELVDHYGVSRMTVRNSFSILQGEGLVHAEHGKGVFVRPRPPVRRLASDRFARRHREQGKSAFIVEADAVGSHPKVDSLEVKEEKASQDISTRLGSVRRVLARRRRYLLDGRPVEFATSYLPLDIARGTQIAEPNPGPGGIYARLEELGHRLDHFEEEIRARMPSPAEVKTLHLAAGVPVIHLIRTAFDTEGRAVEVCDTVMAADAYVLSYQLPAT,not soluble
